Two substances from patent US8414892 can be followed below.

Assay [1] concerns the target 8H9 scFv-human gamma1-CH2-CH3 chimeric antibody (human). The experiment in a line: FACS inhibition, 5 ug/ml 8H9-scFv-Fc on HTB82 cells.
Assay [2] deals with monoclonal antibody 8H9. Description: ELISA, MoAb coated; ++ = OD 1~2.
The target of another assay is MoAb 3F8. The experiment in a line: ELISA, MoAb coated. On the technique in general: In an ELISA, binding on a coated surface is turned into a signal by an enzyme label.
Another assay has as its target MoAb R24. The experiment in a line: ELISA, MoAb coated.
The target in the next assay is FCOPC21. The experiment in a line: ELISA, MoAb coated.
The next assay has as its target MOPC 21. The experiment in a line: ELISA, MoAb coated.
A further assay addresses MOPC 315. The experiment in a line: ELISA, MoAb coated.
The target in a further assay is TIB114. The experiment in a line: ELISA, MoAb coated.
The next assay has as its target HOPC-1. The experiment in a line: ELISA, MoAb coated.
The target of a further assay is UJ 13A. Description: ELISA, MoAb coated.
A further assay deals with MOPC 104E. Description: ELISA, MoAb coated.
The target of assay [3] is monoclonal antibody 8H9. Description: FACS inhibition, 5 ug/ml 8H9 on HTB-82 cells.
For assay [4], the target named is monoclonal antibody 8H9. The experiment in a line: FACS inhibition, 5 ug/ml 8H9 on LAN-1 cells.
In assay [5] the target is HLA class I (HLA A, B, C) (human). Description: indirect immunofluorescence.
Assay [6] has the same target. The experiment in a line: indirect immunofluorescence, U2OS cells recultured at 37 C after antibody binding.
Assay [7] has the same target. Description: indirect immunofluorescence, U2OS cells.

monoclonal antibody 8H9, sequence (VH, as listed by the source limits assumed, chain 1 of 2): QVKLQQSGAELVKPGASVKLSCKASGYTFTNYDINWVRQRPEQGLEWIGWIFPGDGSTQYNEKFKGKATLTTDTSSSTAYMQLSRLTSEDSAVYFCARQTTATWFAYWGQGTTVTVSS
monoclonal antibody 8H9, sequence (VL, as listed by the source limits assumed, chain 2 of 2): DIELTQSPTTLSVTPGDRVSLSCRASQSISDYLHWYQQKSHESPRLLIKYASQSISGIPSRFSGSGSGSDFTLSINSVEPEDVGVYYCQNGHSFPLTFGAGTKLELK

“rat anti-8H9 anti-idiotypic monoclonal antibody 2E9” registered a concentration of 2E9 giving complete inhibition of 8H9-scFv-Fc staining in assay [1] of 1 µg/mL. In addition, the OD with monoclonal antibody 8H9 [2] is 1 to 2 od; in the assay with MoAb 3F8 it was less than 0.5 od; with MoAb R24, less than 0.5 od; with FCOPC21, less than 0.5 od; in the assay with MOPC 21, less than 0.5 od; with MOPC 315 it was less than 0.5 od. The OD with TIB114, in the assay with HOPC-1, with UJ 13A and in the assay with MOPC 104E was less than 0.5 od in each case. Besides, the concentration of 2E9 giving complete inhibition of 8H9 staining in the assay with monoclonal antibody 8H9 [3] is 10 µg/mL. Moreover, the concentration of 2E9 without inhibition of 8H9 staining with monoclonal antibody 8H9 [3] and in the assay with monoclonal antibody 8H9 [4] was 2 µg/mL throughout. In the assay with monoclonal antibody 8H9 [4], this substance showed a concentration of 2E9 giving almost complete inhibition of 8H9 staining of 10 µg/mL.

anti-HLA A, B, C antibody HB-95: the loss of binding after 48 h at 37 C in assay [5] was found to be 85%; in assay [7] it was 89%. In assay [6], this substance returned a relative immunofluorescence remaining after 48 h of 11%.
